# Values of other authors, collected in article PMC4497409.
# Where “and” joins values, the source holds several entries; their conditions need not be identical. Equal entries are not always repeated.
# Assays:
# [1] = target: Frizzled4 CRD (Mus musculus) (UniProt Q61088); assay: ELISA
# [2] = target: Frizzled4 CRD (Homo sapiens) (UniProt Q9ULV1); assay: AlphaScreen
# [3] = target: Lrp6 P1E1P2E2 (Homo sapiens) (UniProt O75581); assay: AlphaScreen
# Lrp6 P1E1P2E2 (Homo sapiens), sequence (O75581 20-630): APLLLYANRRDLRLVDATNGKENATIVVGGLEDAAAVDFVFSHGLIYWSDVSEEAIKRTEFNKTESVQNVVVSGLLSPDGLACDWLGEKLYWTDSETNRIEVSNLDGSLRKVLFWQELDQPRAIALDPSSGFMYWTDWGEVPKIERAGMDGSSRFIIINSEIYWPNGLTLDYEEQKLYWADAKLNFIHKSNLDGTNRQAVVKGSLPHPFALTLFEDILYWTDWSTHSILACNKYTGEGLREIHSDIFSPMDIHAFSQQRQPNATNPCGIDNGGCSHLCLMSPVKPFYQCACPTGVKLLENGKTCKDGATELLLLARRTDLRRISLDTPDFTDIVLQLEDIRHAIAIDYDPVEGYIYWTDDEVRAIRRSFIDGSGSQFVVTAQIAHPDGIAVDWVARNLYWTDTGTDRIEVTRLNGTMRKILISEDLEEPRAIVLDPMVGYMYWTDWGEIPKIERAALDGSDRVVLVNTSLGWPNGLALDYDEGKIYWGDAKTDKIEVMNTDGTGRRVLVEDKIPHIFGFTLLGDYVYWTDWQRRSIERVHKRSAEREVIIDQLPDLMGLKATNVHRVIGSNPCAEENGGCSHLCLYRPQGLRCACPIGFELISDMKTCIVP
# Frizzled4 CRD (Homo sapiens), sequence (Q9ULV1 40-161): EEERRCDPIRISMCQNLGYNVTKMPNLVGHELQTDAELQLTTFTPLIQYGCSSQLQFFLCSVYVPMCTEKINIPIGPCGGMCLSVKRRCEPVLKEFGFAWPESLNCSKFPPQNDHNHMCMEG
# Frizzled4 CRD (Mus musculus), sequence (Q61088 40-161): as the sequence (Q9ULV1 40-161) above, with S12A, K94R, E102D, S103T counted along it
# Norrin, sequence (P48744 25-131): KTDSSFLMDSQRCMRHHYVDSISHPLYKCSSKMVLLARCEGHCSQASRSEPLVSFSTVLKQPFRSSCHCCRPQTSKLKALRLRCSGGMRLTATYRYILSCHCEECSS
Substance,Kd [1] [nM],Kd [2],Kd [3] [nM]
Norrin (from UniProt P48744),3.5,–,–
Norrin (from UniProt Q00604),–,11 nM and 5 nM,450
